From IntAct's records for PubMed 31515488

B1: Tumor susceptibility gene 101 protein (Homo sapiens), Q99816 (parent)
chain: MAVSESQLKKMVSKYKYRDLTVRETVNVITLYKDLKPVLDSYVFNDGSSRELMNLTGTIPVPYRGNTYNIPICLWLLDTYPYNPPICFVKPTSSMTIKTGKHVDANGKIYLPYLHEWKHPQSDLLGLIQVMIVVFGDEPPVFSRPISASYPPYQATGPPNTSYMPGMPGGISPYPSGYPPNPSGYPGCPYPPGGPYPATTSSQYPSQPPVTTVGPSRDGTISEDTIRASLISAVSDKLRWRMKEEMDRAQAELNALKRTEEDLKKGHQKLEEMVTRLDQEVAEVDKNIELLKKKDEELSSALEKMENQSENNDIDEVIIPTAPLYKQILNLYAEENAIEDTIFYLGEALRRGVIDLDVFLKHVRLLSRKQFQLRALMQKARKTAGLSDLY
B2: Notch homolog 2 N-terminal-like protein A (Homo sapiens), Q7Z3S9 (parent)
chain: MCVTYHNGTGYCKCPEGFLGEYCQHRDPCEKNRCQNGGTCVAQAMLGKATCRCASGFTGEDCQYSTSHPCFVSRPCLNGGTCHMLSRDTYECTCQVGFTGKECQWTDACLSHPCANGSTCTTVANQFSCKCLTGFTGQKCETDVNECDIPGHCQHGGTCLNLPGSYQCQCLQGFTGQYCDSLYVPCAPSPCVNGGTCRQTGDFTFECNCLPETVRRGTELWERDREVWNGKEHDEN
partner: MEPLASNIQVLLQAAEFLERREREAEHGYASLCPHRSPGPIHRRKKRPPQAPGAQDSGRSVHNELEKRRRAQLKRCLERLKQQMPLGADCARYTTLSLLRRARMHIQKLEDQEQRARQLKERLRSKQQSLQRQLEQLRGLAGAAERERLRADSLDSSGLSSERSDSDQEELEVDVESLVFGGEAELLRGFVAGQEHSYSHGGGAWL
B3: Protein-lysine N-methyltransferase EEF2KMT (Homo sapiens), Q96G04 (parent)
chain: MAPEENAGTELLLQSFERRFLAARTLRSFPWQSLEAKLRDSSDSELLRDILHKTVKHPVCVKHPPSVKYARCFLSELIKKHEAVHTEPLDELYEALAETLMAKESTQGHRSYLLPSGGSVTLSESTAIISYGTTGLVTWDAALYLAEWAIENPAVFTNRTVLELGSGAGLTGLAICKMCRPRAYIFSDCHSRVLEQLRGNVLLNGLSLEADITAKLDSPRVTVAQLDWDVATVHQLSAFQPDVVIAADVLYCPEAIMSLVGVLRRLAACREHQRAPEVYVAFTVRNPETCQLFTTELGRAGIRWEVEPRHEQKLFPYEEHLEMAMLNLTL
B4: Cytochrome P450 2S1 (Homo sapiens), Q96SQ9 (parent)
chain: MEATGTWALLLALALLLLLTLALSGTRARGHLPPGPTPLPLLGNLLQLRPGALYSGLMRLSKKYGPVFTIYLGPWRPVVVLVGQEAVREALGGQAEEFSGRGTVAMLEGTFDGHGVFFSNGERWRQLRKFTMLALRDLGMGKREGEELIQAEARCLVETFQGTEGRPFDPSLLLAQATSNVVCSLLFGLRFSYEDKEFQAVVRAAGGTLLGVSSQGGQTYEMFSWFLRPLPGPHKQLLHHVSTLAAFTVRQVQQHQGNLDASGPARDLVDAFLLKMAQEEQNPGTEFTNKNMLMTVIYLLFAGTMTVSTTVGYTLLLLMKYPHVQKWVREELNRELGAGQAPSLGDRTRLPYTDAVLHEAQRLLALVPMGIPRTLMRTTRFRGYTLPQGTEVFPLLGSILHDPNIFKHPEEFNPDRFLDADGRFRKHEAFLPFSLGKRVCLGEGLAKAELFLFFTTILQAFSLESPCPPDTLSLKPTVSGLFNIPPAFQLQVRPTDLHSTTQTR
partner: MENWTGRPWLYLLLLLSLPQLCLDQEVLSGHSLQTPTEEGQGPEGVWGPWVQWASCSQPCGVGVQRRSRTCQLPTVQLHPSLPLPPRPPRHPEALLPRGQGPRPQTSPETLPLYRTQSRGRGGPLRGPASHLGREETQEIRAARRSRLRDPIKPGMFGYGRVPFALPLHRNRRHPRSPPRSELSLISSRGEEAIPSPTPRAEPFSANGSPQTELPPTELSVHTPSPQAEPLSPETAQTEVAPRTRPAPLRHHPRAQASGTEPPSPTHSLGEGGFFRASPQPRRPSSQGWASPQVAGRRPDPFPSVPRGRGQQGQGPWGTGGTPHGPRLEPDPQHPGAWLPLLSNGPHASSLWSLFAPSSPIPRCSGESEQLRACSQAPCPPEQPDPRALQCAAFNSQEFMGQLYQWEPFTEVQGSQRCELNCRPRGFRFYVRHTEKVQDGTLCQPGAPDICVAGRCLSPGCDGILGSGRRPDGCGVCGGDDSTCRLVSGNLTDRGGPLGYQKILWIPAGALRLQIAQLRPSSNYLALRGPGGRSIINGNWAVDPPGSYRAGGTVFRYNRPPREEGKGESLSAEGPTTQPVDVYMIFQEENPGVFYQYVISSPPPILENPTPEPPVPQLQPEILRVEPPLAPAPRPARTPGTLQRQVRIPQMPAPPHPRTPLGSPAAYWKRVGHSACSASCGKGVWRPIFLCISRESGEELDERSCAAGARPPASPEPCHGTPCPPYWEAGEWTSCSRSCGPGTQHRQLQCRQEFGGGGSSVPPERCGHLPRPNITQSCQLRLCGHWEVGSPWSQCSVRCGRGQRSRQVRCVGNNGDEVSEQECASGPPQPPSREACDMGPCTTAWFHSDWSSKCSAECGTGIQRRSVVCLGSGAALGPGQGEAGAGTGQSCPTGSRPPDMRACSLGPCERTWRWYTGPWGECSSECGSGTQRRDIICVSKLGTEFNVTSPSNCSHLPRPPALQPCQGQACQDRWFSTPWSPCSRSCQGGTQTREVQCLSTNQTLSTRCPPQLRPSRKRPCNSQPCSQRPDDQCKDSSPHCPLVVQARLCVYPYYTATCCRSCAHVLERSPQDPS
B5: Synaptotagmin-like protein 5 (Homo sapiens), Q8TDW5 (parent)
chain: MSKNSEFINLSFLLDHEKEMILGVLKRDEYLKKVEDKRIRKLKNELLEAKRRSGKTQQEASRVCVHCHRNLGLIFDRGDPCQACSLRVCRECRVAGPNGSWKCTVCDKIAQLRIITGEWFFEEKAKRFKQVNVLGTDVVRQSILRRSPGAEEVQSQEQTRQDAEKSDTSPVAGKKASHDGPKRKGFLLSKFRSATRGEIITPKTDTGRSYSLDLDGQHFRSLKSPPGSDRGSTGSSDLNDQEPGPRTPKSSRSNGVTPGTQSSPAPSTRTVTSVISREYGFENSMDLAAIEGTSQELTKSHRRNTSGTPSIAVSGTSLSSDQSRSELDLSESFTEDSEDTVSIRSKSVPGALDKDSLEETEESIDALVSSQLSTNTHRLASGLSTTSLNSMMSVYSETGDYGNVKVSGEILLHISYCYKTGGLYIFVKNCRNLAIGDEKKQRTDAYVKSYLLPDKSRNNKRKTKIRTGTNPEFNETLKYTISHTQLETRTLQLSVWHYDRFGRNSFLGEVEIPFDSWNFENPTDEWFVLQPKVEFAPDIGLQYKGELTVVLRYIPPEENLMLPPEQLQGNKTFKKGKKKESPVISGGILEVFIKEAKNLTAVKSGGTSDSFVKGYLLPDDSKATKHKTLVIKKSVNPQWNHTFMFSGIHPQDIKNVCLELTIWDKEAFSSNIFLGGVRLNSGSGVSHGKNVDWMDSQGEEQRLWQKMANNPGTPFEGVLMLRSSMGKCRL
B6: Serine/threonine-protein kinase PAK 5 (Homo sapiens), Q9P286 (parent)
chain: MFGKKKKKIEISGPSNFEHRVHTGFDPQEQKFTGLPQQWHSLLADTANRPKPMVDPSCITPIQLAPMKTIVRGNKPCKETSINGLLEDFDNISVTRSNSLRKESPPTPDQGASSHGPGHAEENGFITFSQYSSESDTTADYTTEKYREKSLYGDDLDPYYRGSHAAKQNGHVMKMKHGEAYYSEVKPLKSDFARFSADYHSHLDSLSKPSEYSDLKWEYQRASSSSPLDYSFQFTPSRTAGTSGCSKESLAYSESEWGPSLDDYDRRPKSSYLNQTSPQPTMRQRSRSGSGLQEPMMPFGASAFKTHPQGHSYNSYTYPRLSEPTMCIPKVDYDRAQMVLSPPLSGSDTYPRGPAKLPQSQSKSGYSSSSHQYPSGYHKATLYHHPSLQSSSQYISTASYLSSLSLSSSTYPPPSWGSSSDQQPSRVSHEQFRAALQLVVSPGDPREYLANFIKIGEGSTGIVCIATEKHTGKQVAVKKMDLRKQQRRELLFNEVVIMRDYHHDNVVDMYSSYLVGDELWVVMEFLEGGALTDIVTHTRMNEEQIATVCLSVLRALSYLHNQGVIHRDIKSDSILLTSDGRIKLSDFGFCAQVSKEVPKRKSLVGTPYWMAPEVISRLPYGTEVDIWSLGIMVIEMIDGEPPYFNEPPLQAMRRIRDSLPPRVKDLHKVSSVLRGFLDLMLVREPSQRATAQELLGHPFLKLAGPPSCIVPLMRQYRHH
partner: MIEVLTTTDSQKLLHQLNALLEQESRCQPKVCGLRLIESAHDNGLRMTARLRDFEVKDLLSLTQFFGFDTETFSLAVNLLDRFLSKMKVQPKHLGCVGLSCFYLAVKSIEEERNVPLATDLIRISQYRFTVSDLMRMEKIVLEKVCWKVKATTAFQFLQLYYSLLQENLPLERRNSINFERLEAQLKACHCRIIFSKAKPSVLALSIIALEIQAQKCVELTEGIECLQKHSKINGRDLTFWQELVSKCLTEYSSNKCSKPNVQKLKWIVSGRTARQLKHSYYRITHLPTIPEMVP

Variants of: B1
Conditions: with hgs_human HGS
M167I was tested, and the “effect of a mutation on the interaction” value was “with no effect”.

Variants of: B2
Conditions: with mad3_human MXD3, Q9BW11
With R74Q the “effect of a mutation on the interaction” value was “with no effect”. With A115T the “effect of a mutation on the interaction” value was “with no effect”.

Variants of: B3
Conditions: with prdc1_human PRTFDC1, Q9NRG1
prdc1_human PRTFDC1, Q9NRG1, sequence (Q9NRG1 whole entry): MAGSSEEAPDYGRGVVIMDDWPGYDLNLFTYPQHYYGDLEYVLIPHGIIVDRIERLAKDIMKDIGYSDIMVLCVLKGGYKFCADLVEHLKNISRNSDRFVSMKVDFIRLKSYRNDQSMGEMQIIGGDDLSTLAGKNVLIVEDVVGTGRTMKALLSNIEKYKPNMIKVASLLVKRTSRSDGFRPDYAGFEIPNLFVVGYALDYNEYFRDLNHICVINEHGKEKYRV
With S123C the “effect of a mutation on the interaction” value was “with no effect”.

Variants of: B4
Conditions: with atl4_human ADAMTSL4, Q6UY14
R166H was tested, and the “effect of a mutation on the interaction” value was “disrupting interaction strength”.

Variants of: B5
Conditions: with cep70_human CEP70, Q8NHQ1
cep70_human CEP70, Q8NHQ1, sequence (Q8NHQ1 whole entry): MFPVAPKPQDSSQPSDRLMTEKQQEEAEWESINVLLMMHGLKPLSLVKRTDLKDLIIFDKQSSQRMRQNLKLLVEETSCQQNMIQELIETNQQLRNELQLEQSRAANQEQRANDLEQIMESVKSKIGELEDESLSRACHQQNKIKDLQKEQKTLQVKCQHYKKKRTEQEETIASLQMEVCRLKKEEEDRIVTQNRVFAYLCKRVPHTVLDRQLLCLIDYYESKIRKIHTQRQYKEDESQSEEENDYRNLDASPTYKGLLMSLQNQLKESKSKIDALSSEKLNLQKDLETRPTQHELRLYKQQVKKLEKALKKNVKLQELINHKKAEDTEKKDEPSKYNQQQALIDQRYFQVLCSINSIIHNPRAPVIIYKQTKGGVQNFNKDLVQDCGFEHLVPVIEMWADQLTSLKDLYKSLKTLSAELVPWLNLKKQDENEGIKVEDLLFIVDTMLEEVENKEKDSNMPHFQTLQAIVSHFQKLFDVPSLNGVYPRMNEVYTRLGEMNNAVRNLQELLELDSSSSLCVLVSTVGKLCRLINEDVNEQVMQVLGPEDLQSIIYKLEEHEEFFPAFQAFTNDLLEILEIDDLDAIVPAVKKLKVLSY
For D400N, the “effect of a mutation on the interaction” value was “with no effect”. With S369P the “effect of a mutation on the interaction” value was “with no effect”. R160H was tested, and the “effect of a mutation on the interaction” value was “with no effect”.

Variants of: B6
Conditions: with ccng1_human CCNG1, P51959
In the case of V604I, the “effect of a mutation on the interaction” value is reported as “with no effect”. With R335P the “effect of a mutation on the interaction” value was “with no effect”. In the case of S511N, the “effect of a mutation on the interaction” value is reported as “with no effect”.
